Laboratory results published in US20240252641A1.

Assays:
[1] = target: CD70 on cells (CHO-CD70, JVM-3, U266, Raji, THP-1, T cells) (human) (UniProt P32970); test: on Raji cells
[2] = target: CD70 on cells (CHO-CD70, JVM-3, U266, Raji, THP-1, T cells) (human) (UniProt P32970); test: on U266 cells
[3] = target: CD70 on cells (CHO-CD70, JVM-3, U266, Raji, THP-1, T cells) (human) (UniProt P32970); test: on JVM-3 cells

CD70 on cells (CHO-CD70, JVM-3, U266, Raji, THP-1, T cells) (human), sequence (P32970 whole entry): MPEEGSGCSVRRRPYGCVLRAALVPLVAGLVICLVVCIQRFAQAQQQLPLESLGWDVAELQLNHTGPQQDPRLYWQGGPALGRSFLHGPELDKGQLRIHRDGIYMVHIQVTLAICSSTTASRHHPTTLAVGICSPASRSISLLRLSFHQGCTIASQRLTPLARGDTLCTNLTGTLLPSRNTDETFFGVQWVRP

cell binding [1]: 68900
cell binding [2]: 239000
cell binding [3]: 225000
Substance: 1F6 (clone ID in Table 3, alloy mouse hybridoma) (antibody)
